The target in assay [1] is Recombinant human uPAR his (R&D Systems, 807-UK-100/CF) (human, UniProt Q03405 23-303, biotinylated (sites not given)). Description: SPR (Biacore), biotinylated human uPAR his on streptavidin chip. A general note: In SPR one partner is held on a chip, and binding of the other changes the refractive index at the surface.
The target of assay [2] is T1, mouse uPAR on cells (mouse, UniProt P35456 24-298).
T1 construct: whole, on cells; also called Ms-uPAR; mouse uPAR (CD87)
T1 sequence (looked up): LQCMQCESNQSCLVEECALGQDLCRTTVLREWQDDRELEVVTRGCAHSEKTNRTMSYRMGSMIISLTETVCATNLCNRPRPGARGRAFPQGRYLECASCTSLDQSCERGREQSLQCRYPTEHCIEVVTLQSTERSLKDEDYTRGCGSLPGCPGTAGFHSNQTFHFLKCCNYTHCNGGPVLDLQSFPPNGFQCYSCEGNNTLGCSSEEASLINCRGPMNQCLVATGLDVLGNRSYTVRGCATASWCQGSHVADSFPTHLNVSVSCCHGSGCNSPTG
Kind of assay: flow cytometry on CT26 cells (express mouse uPAR), anti-His detection. In general terms: Flow cytometry measures light scatter and fluorescence of single cells or particles in a stream.

In assay [3] the target is T1, mouse uPAR on cells. Kind of assay: flow cytometry on MC38 cells (express mouse uPAR), anti-His detection.
Assay [4] deals with T1, mouse uPAR on cells. Description: flow cytometry on 4T1 cells (express mouse uPAR), anti-His detection.
The target of assay [5] is human 4-1BB on 4-1BB effector cells (human, UniProt Q07011 24-255). Description: cell-based or functional assay.
human 4-1BB on 4-1BB effector cells, sequence (Q07011 24-255): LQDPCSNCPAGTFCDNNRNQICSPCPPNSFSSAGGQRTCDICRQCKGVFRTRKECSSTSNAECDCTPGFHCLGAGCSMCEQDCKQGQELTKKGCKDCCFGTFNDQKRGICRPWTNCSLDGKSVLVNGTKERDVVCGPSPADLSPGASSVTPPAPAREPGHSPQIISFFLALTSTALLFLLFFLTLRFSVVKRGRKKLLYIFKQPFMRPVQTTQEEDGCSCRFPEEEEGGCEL
The target in assay [6] is T2, Recombinant mouse uPAR-Fc (R&D Systems, Cat. No. 531-PA-100) (mouse, UniProt P35456 24-297, limits assumed).
T2 construct: not shown: Fc of the bought fusion (captured with the human antibody capture kit); not described
T2 sequence (looked up): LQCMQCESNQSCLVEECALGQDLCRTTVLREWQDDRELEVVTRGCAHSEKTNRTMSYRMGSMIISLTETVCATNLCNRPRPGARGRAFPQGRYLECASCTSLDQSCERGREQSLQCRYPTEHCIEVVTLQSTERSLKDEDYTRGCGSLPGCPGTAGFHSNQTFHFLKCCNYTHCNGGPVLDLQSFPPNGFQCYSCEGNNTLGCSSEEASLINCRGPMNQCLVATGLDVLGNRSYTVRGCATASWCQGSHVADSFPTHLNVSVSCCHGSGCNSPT
Kind of assay: SPR (Biacore), mouse uPAR-Fc captured on anti-human antibody chip.

The target in assay [7] is IL-2/IL-15 receptor on primary mouse splenocytes (mouse). Kind of assay: cell-based or functional assay.
In assay [8] the target is T1, mouse uPAR on cells. Description: flow cytometry on EMT6 cells (express mouse uPAR), anti-His detection.
Assay [9] has as its target Human uPAR DII-DIII domain HisAvi Tag (human, biotinylated (site not stated)). Description: BLI (Octet), biotinylated domain on SA sensor, antibody 200 nM. Background: BLI is a label-free optical method that tracks binding on a fibre tip over time.
Assay [10] addresses T3, histidine-tagged human uPAR (Sino#10925-H08H) (human, UniProt Q03405 23-303).
T3 construct: also called uPAR-His
Description: BLI (Octet), antibody on anti-mouse Fc sensor, uPAR in solution.

The target of assay [11] is T1, mouse uPAR on cells. Kind of assay: flow cytometry, HEK293 cells expressing mouse uPAR, 100 nM uPA present.
For assay [12], the target named is T4, biotinylated human uPAR (human, UniProt Q03405 23-303, limits assumed, biotinylated (site not stated)). Description: BLI (Octet) competition on biotinylated human uPAR; competitor (first antibody): M1.
The target of assay [13] is T3, histidine-tagged human uPAR …. Kind of assay: BLI (Octet), uPAR on sensor, antibody in solution (avidity).
Assay [14] deals with T4, biotinylated human uPAR. Description: BLI (Octet) competition on biotinylated human uPAR; competitor (first antibody): M5.
Assay [15] addresses T4, biotinylated human uPAR. Description: BLI (Octet) on biotinylated human uPAR; row 'None': no first antibody.
Assay [16] deals with T5, human uPAR expressed on HEK293 cells (human, UniProt Q03405 23-305).
T5 construct: whole, on cells; also called Hu-uPAR
Kind of assay: flow cytometry, HEK293 cells expressing human uPAR, 100 nM uPA present.

Assay [17] concerns the target T4, biotinylated human uPAR. Description: BLI (Octet) competition on biotinylated human uPAR; competitor (first antibody): ATN-368 (ATN-658).
The target in assay [18] is T6, IL-2/IL-15 receptor on HH cells (human).
T6 chain 1: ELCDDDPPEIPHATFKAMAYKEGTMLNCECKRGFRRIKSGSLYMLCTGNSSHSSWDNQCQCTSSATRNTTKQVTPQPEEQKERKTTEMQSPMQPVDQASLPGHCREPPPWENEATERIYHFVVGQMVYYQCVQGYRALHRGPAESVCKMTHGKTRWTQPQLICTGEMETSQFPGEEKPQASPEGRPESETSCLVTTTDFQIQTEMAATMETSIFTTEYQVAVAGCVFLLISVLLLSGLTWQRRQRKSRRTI
T6 chain 2: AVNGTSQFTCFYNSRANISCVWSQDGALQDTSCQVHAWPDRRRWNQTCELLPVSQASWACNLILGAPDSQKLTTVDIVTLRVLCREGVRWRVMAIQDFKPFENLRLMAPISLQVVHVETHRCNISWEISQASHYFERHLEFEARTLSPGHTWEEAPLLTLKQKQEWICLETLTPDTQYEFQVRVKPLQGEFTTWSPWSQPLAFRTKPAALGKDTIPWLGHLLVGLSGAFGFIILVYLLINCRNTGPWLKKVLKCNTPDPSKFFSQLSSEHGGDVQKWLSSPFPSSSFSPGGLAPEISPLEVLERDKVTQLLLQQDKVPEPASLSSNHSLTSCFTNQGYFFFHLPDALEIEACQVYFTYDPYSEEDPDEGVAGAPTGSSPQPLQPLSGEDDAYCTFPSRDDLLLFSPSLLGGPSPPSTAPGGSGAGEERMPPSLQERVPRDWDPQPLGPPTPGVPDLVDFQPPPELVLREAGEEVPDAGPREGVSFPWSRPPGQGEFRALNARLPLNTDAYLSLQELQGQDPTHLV
T6 chain 3: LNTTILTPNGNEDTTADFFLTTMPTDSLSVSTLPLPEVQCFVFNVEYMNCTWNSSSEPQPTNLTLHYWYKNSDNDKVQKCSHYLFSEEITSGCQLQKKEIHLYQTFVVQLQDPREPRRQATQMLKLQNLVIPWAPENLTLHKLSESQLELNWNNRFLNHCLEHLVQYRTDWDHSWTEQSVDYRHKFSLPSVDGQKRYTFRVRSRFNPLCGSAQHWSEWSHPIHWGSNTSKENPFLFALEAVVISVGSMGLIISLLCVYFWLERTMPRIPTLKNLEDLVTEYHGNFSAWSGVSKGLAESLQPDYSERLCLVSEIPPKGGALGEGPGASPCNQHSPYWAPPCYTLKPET
Kind of assay: cell-based or functional assay.

Usually koff stands for the rate constant with which the complex falls apart. Usually kon stands for the second-order rate constant of association. Broadly, the EC50 is the concentration that produces a half-maximal response.

B1: Human uPA-ATF:His6 (ligand)
chain: SNELHQVPSNCDCLNGGTCVSNKYFSNIHWCNCPKKFGGQHCEIDKSKTCYEGNGHFYRGKASTDTMGRPCLPWNSATVLQQTYHAHRSDALQLGLGKHNYCRNPDNRRRPWCYVQVGLKPLVQECMVHDCAHHHHHH
notes: also called 103
As for B1, the Kd in assay [1] worked out at 240 pM. In addition, the off-rate constant (koff) in assay [1] is 0.00035 s⁻¹. The kon in [1] came to 1.5e+06 M⁻¹ s⁻¹. Moreover, the figures for the EC50 in assay [2], in [3] and in assay [4] were 1100 pM, 420 pM and 220 pM, respectively.

B2: Linked human 4-1BBL Trimer: Human uPA-ATF (other)
chain: SNELHQVPSNCDCLNGGTCVSNKYFSNIHWCNCPKKFGGQHCEIDKSKTCYEGNGHFYRGKASTDTMGRPCLPWNSATVLQQTYHAHRSDALQLGLGKHNYCRNPDNRRRPWCYVQVGLKPLVQECMVHDCAGGSGGREGPELSPDDPAGLLDLRQGMFAQLVAQNVLLIDGPLSWYSDPGLAGVSLTGGLSYKEDTKELVVAKAGVYYVFFQLELRRVVAGEGSGSVSLALHLQPLRSAAGAAALALTVDLPPASSEARNSAFGFQGRLLHLSAGQRLGVHLHTEARARHAWQLTQGATVLGLFRVTPEIPAGLPSPRSEGSGREGPELSPDDPAGLLDLRQGMFAQLVAQNVLLIDGPLSWYSDPGLAGVSLTGGLSYKEDTKELVVAKAGVYYVFFQLELRRVVAGEGSGSVSLALHLQPLRSAAGAAALALTVDLPPASSEARNSAFGFQGRLLHLSAGQRLGVHLHTEARARHAWQLTQGATVLGLFRVTPEIPAGLPSPRSEGSGREGPELSPDDPAGLLDLRQGMFAQLVAQNVLLIDGPLSWYSDPGLAGVSLTGGLSYKEDTKELVVAKAGVYYVFFQLELRRVVAGEGSGSVSLALHLQPLRSAAGAAALALTVDLPPASSEARNSAFGFQGRLLHLSAGQRLGVHLHTEARARHAWQLTQGATVLGLFRVTPEIPAGLPSPRSE
Take B2: in [5], the “EC50, luciferase 4-1BB Bioassay” value was 100 pM and the “Emax (luciferase units), 4-1BB Bioassay” value turned out to be 330000 luciferase units.

B3: Mouse cpIL-2:IL-2Ra:mouse uPA-ATF-His6 (other)
chain: SKSFQLEDAENFISNIRVTVVKLKGSDNTFECQFDDESATVVDFLRRWIAFCQSIISTSPQGGSSSTQQQQQHLEQLLMDLQELLSRMENYRNLKLPRMLTFKFYLPKQATELKDLQCLEDELGPLRHVLDLTQGSGGGSELCLYDPPEVPNATFKALSYKNGTILNCECKRGFRRLKELVYMRCLGNSWSSNCQCTSNSHDKSRKQVTAQLEHQKEQQTTTDMQKPTQSMHQENLTGHCREPPPWKHEDSKRIYHFVEGQSVHYECIPGYKALQRGPAISICKMKCGKTGWTQPQLTCVDGGSGGGSVLGAPDESNCGCQNGGVCVSYKYFSRIRRCSCPRKFQGEHCEIDASKTCYHGNGDSYRGKANTDTKGRPCLAWNAPAVLQKPYNAHRPDAISLGLGKHNYCRNPDNQKRPWCYVQIGLRQFVQECMVHDCHHHHHH
notes: also called 101
For the molecule B3, in assay [6], the Kd stood at 190 pM, the koff was found to be 0.00026 s⁻¹ and the kon turned out to be 1.3e+06 M⁻¹ s⁻¹. In addition, in assay [7], the “pSTAT5 EC50, mouse NK cells” value was found to be 20 nM; the “pSTAT5 EC50, mouse Tregs” value came out at 17 nM; the “pSTAT5 EC50, mouse memory CD8 T cells” value is 27 nM. Also, the EC50 in [2] was 1300 pM. For the same molecule, the EC50 in assay [8] was found to be 410 pM. The molecule further yielded an EC50 in assay [3] of 710 pM. This molecule also returned an EC50 in assay [4] of 1000 pM.

B4: M8 (antibody, V domains shown)
VH: QIQLVQSGPELKKPGETVKISCKASGNTFTDYGMNWVKQSPGKGLKWMGWINTNTGEPTYADDFKGRFAFSLETSASTAYLQINNLKNEDMATYFCAHYSFDYWGQGTTLTVSS
VL: DIQMTQSPASLSVSVGQTVTITCRTSENIYSNLAWYQQKPGKSPQLLVYAATNLADGVPSRFSGSGSGTQYSLKINSLQSEDFGSYYCQHFWGTPWTFGGGTKLEIK
notes: Mouse hybridoma antibody; also called anti-uPAR antibody M8; parental M8
On to B4, for which, in assay [9], the binding result was “binds”. The Kd in assay [10] was 1080 pM; in assay [13], less than 1 pM. Besides, the values for the koff in assay [10] and in assay [13] were 0.00063 s⁻¹ and less than 1e-07 s⁻¹, respectively. For the same molecule, the kon in [10] was determined as 584000 M⁻¹ s⁻¹; in assay [13], 311000 M⁻¹ s⁻¹. The EC50 in assay [11] stood at 31400 pM; in assay [16], 540 pM. Moreover, the “response in competition assay” value was 0.302 in assay [12], 0.321 in assay [14], 0.284 in assay [15] and 0.31 in [17].

B5: Human cpIL-2:IL-2Ra:Human uPA-ATF (N22Y, W30R)-His6 (other)
chain: SKNFHLRPRDLISNINVIVLELKGSETTFMCEYADETATIVEFLNRWITFSQSIISTLTGGSSSTKKTQLQLEHLLLDLQMILNGINNYKNPKLTRMLTFKFYMPKKATELKHLQCLEEELKPLEEVLNLAQGSGGGSELCDDDPPEIPHATFKAMAYKEGTMLNCECKRGFRRIKSGSLYMLCTGNSSHSSWDNQCQCTSSATRNTTKQVTPQPEEQKERKTTEMQSPMQPVDQASLPGHCREPPPWENEATERIYHFVVGQMVYYQCVQGYRALHRGPAESVCKMTHGKTRWTQPQLICTGGGSGGSNELHQVPSNCDCLNGGTCVSYKYFSNIHRCNCPKKFGGQHCEIDKSKTCYEGNGHFYRGKASTDTMGRPCLPWNSATVLQQTYHAHRSDALQLGLGKHNYCRNPDNRRRPWCYVQVGLKPLVQECMVHDCAHHHHHH
notes: also called 110
For the molecule B5, in assay [6], the Kd worked out at 120 pM, the koff is 0.00023 s⁻¹ and the kon came out at 1.9e+06 M⁻¹ s⁻¹. Moreover, in [18], the “pSTAT5 EC50, HH cells” value came to 1.6 nM. In assay [2], this molecule came in with an EC50 of 1400 pM. The molecule further registered an EC50 in [8] of 540 pM.

The record behind these values is patent publication US20220340678A1 (MURAL ONCOLOGY, published 2022).
